From IntAct's records for PubMed 17167417

B1: DNA replication regulator DPB11 (Saccharomyces cerevisiae), P47027 (parent)
chain: MKPFQGITFCPTAINNEILAKKISKKIIKLGGIFSKDLTRQVNVLVVGSTTNTNKFKFAVKHRFDIIFIDIQAIDDIYQLWLSGENILPDSNTATMTGSTYEMLKILYRRFSFKYLHNFNIFIGRITDTNITSIDSLVRSIKKLGCSSYNYQNFVIKDTSSHNDDDDQGQNGQISIFVTDTLLGARVNAAIEQNIPIVHFKWILDCQKRSALLPYDPYYLLPNIKDLPYDSIGSNSCDCWDKINTTFPTNIDAQSSLQRQQSSSTLTPSLPKTSSLLNKFKPKGEKIWDKAMSLQQHSKTNFSVLGQSPLSINNKQEDLSDNSTLIFKNCAFIIHHIFPGNHRSILTKIVVQNGGKIETSYLSGIYDHSYYIIPSNKALDSFNDLPEIIDDNDGIVTEFFIERCLYYQKLLHPIDLWSKPFLSTIEFQVSSSSKLLHHEFSSSPFLNVTITGFSGVELLHLTKVLNLLKPMGINYVEYLNKSTDILLINLAALPSIPKTHPLWSNEFSDLFTQFCINNNNDDPGDNNRKDFQNNSILRNSMKRKIEYIKKFHSIPVVTPAFIFKLLSAASGENNEIFLNNIKWCIICPRGHKDDFKCKIKKPYYTSISSEKKYQNNDPKIDKTILLKRNNSSLSEHSMKDTKNELLQKIRETDSGRKKRSVSSSIMDVSSERQMPDTKRIKLESLPKNFVPKQIKRTTSWGTIMSENVPTEQPTAISNPEEIPRTEEVSHTQVTYGSIQDKKRTASLEKPMRRQTRNQTKELDS
partner: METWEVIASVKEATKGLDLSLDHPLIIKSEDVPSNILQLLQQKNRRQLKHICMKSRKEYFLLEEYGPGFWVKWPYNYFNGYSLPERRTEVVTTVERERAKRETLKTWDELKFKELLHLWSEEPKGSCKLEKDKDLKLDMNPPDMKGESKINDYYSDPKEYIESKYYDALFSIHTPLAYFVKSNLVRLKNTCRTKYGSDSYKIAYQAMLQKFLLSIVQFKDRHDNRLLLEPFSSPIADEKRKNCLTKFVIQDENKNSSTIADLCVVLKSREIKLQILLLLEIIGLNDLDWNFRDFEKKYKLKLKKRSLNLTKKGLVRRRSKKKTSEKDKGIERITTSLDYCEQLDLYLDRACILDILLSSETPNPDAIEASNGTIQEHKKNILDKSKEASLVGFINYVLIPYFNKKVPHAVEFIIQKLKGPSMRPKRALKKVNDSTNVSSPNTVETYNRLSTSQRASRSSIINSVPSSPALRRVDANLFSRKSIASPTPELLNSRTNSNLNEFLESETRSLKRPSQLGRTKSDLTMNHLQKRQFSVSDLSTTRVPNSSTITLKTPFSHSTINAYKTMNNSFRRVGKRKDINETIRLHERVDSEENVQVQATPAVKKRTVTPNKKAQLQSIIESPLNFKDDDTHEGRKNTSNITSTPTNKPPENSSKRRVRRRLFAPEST

Variants of: B1
Conditions: with sld3_yeast SLD3, P53135

Row | effect of a mutation on the interaction | Variant
1 | disrupting interaction strength | K55D;F56P
